In experiment [1] the target is T1, extracellular region of human CD123 subtype 1 with C-terminal His tag (hCD123-SP1-his) (human (Homo sapiens), UniProt P26951 19-305).
T1 construct: Recombinant, expressed in HEK293 cells
T1 sequence: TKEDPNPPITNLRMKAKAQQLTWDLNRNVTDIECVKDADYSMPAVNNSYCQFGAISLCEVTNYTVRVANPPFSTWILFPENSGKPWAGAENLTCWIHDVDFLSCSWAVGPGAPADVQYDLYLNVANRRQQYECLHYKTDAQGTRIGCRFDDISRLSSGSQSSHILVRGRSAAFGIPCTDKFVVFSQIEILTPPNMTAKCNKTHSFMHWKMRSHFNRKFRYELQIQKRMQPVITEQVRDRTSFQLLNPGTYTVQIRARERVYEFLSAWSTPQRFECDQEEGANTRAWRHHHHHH
Put plainly: SPR, Biacore X100; antibody captured by anti-human IgG (Fc), hCD123-SP1-his as analyte, 1:1 model. As to the method:
(§1) The affinity of anti-CD123 antibodies was determined by surface plasmon resonance using Biacore X100. Related reagents and consumables such as Amino Conjugation Kit (BR-1000-50), Human Antibody Capture Kit (BR-1008-39), CM5 Chip (BR100012) and 10×HBS-EP (BR100669) buffer with pH 7.4 were all purchased from GE healthcare. According to the instructions in the kits, 1-Ethyl-3-(3-dimethylaminopropyl) carbodiimide hydrochloride (EDC) and N-Hydroxysuccinimide (NHS) was used to activate the surface of the carboxylated CM5 chip, and the anti-human IgG (Fc) antibody (capture antibody) was diluted to 25 μg/mL with 10 mM, pH5.0 sodium acetate, followed by an injection with a flow rate at 10 μL/min to achieve a coupling volume of approximately 10,000 response units (RU). Following the injection of the capture antibody, 1 M ethanolamine was injected to block unreacted groups. […] The chip surface was regenerated by injecting 3M MgCl₂ solution at 10 μL/min for 30 s. Association rates (Kₒₙ) and dissociation rates (Koff) were calculated from association and dissociation sensorgrams fitted by a 1:1 binding model using Biacore X100 evaluation software version 2.0.1. The dissociation equilibrium constant (KD) was calculated as the ratio Koff/Kₒₙ.
Background: Surface plasmon resonance follows binding to a sensor surface in real time, without labels.

Experiment [2] addresses T2, CD123 on the surface of CD123-positive cells (KG-1a, MV-4-11) (human, UniProt P26951 19-378).
T2 construct: whole, on cells; Endogenous CD123 on KG-1a (human acute myeloid leukemia) and MV-4-11 (human acute monocytic leukemia) cells; also called cell surface CD123 antigen; CD123 on the surface of MV-4-11 cells
Put plainly: flow cytometry on MV-4-11 cells, titration from 100 nM, goat anti-human IgG-FITC; MV-4-11 cells, flow cytometry titration (apparent KD). As to the method: (§2) MV-4-11 cells were plated in a 96-well V-bottom plate at 100 μL/well, and the supernatant was removed after centrifugation. […] The antibodies were added to the wells containing cells and incubated at 4° C. for 1 hour. Then, the plate was washed three times with 200 μL PBS buffer. The goat anti-human IgG-FITC secondary antibody (ZF-0308, ZSGB-BIO) was added to the wells (100 μL/well), and incubated at 4° C. for 30 minutes in the dark. Then, the cells were washed three times with 200 μL of PBS buffer, and resuspended in 100 μL of PBS buffer to detect FITC channel by flow cytometer (ACEA, Novocyte).
(In flow cytometry, cells or beads pass a laser one at a time.)

Experiment [3] concerns the target T2, CD123 on the surface of CD123-positive …. The experiment can be described thus: flow cytometry titration on MV-4-11 cells, goat anti-human IgG-FITC secondary antibody. As to the method:
as §2, with “MV-4-11 cells at the logarithmic phase of growth were used and resuspended to 2×10⁶ […] with PBS buffer containing 1% BSA after centrifugation. MV-4-11” for “MV-4-11”

The target in experiment [4] is T1, extracellular region of human CD123 …. Put plainly: SPR, Biacore X100; antibody captured by anti-human IgG (Fc), hCD123-SP1-his as analyte, 1:1 model. As to the method:
as §1
This is another data set of the same source.

Experiment [5] deals with T3, extracellular region of human CD3E with C-terminal His tag (hCD3E-his) (human (Homo sapiens), UniProt P07766 23-126).
T3 construct: Recombinant, expressed in HEK293 cells
T3 sequence (P07766 other isoform, or with tags, fused parts or gaps limits assumed): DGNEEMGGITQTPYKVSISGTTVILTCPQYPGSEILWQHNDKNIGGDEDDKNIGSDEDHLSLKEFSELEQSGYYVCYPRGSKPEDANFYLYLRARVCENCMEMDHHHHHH
Put plainly: SPR, Biacore X100; antibody captured by anti-human IgG (Fc), hCD3E-his as analyte, 1:1 model. As for the experimental part: (§3) The chip surface was regenerated by injecting 3M MgCl₂ solution at 10 μL/min for 30 s. Association rates (Kₒₙ) and dissociation rates (Koff) were calculated from association and dissociation sensorgrams fitted by a 1:1 binding model using Biacore X100 evaluation software version 2.0.1. The dissociation equilibrium constant (KD) was calculated as the ratio Koff/Kₒₙ.

Experiment [6] deals with T4, extracellular region of cynomolgus monkey CD3E with C-terminal His tag (mfCD3E-his) (cynomolgus monkey (Macaca fascicularis), UniProt Q95LI5 22-117).
T4 construct: Recombinant, expressed in HEK293 cells
T4 sequence: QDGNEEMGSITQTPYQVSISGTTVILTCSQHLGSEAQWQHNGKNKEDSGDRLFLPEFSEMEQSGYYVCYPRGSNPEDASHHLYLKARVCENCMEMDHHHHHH
The experiment can be described thus: SPR, Biacore X100; antibody captured by anti-human IgG (Fc), mfCD3E-his as analyte, 1:1 model. As to the method:
as §3

In experiment [7] the target is T3, extracellular region of human CD3E with …. Put plainly: SPR, Biacore X100; antibody captured by anti-human IgG (Fc) on CM5, hCD3E-his as analyte, 1:1 model, 25 C. As for the experimental part: as §3
Experiment [8] has as its target T1, extracellular region of human CD123 …. The experiment can be described thus: SPR, Biacore X100; antibody captured by anti-human IgG (Fc) on CM5, hCD123-SP1-his as analyte, 1:1 model, 25 C. As to the method: as §1
The target is the same in experiment [9]. Put plainly: phage display, solid-phase screening on hCD123-SP1-His, three rounds.

Numbering of substitutions follows the chain as printed.

B1: anti-CD123 monoclonal antibody H7A3-h2-m5+L27E5 (antibody, V domains shown)
VH: QVQLVQSGAEVKKPGASVKVSCKASGYTFTSYDVSWVRQAPGQRLEWMGWVYPVDGSTKFNEKFKGRVTLTADRSSSTAYMELSSLRSEDTAVYYCARLTYGDFGDAMDYWGQGTLVTVSS
VL: DIVMTQTPLSLSVTPGQPASISCKSSQSLVHSNDNTYLTWYLQKPGQSPQLLIYKVSNRFSGVPDRFSGSGSGTDFTLKISRVEAEDVGVYYCGQGTQYPFTFGQGTKLEIK
notes: Expressed as a whole antibody of human IgG1 with the common light chain L27E5; also called H7A3 humanized version H7A3-h2-m5
Turning to B1, the Kd worked out at 0.244 nM in experiment [1], 3.1 nM in [2] and 0.22 nM in experiment [4]. The koff in [1] is 7.67e-05 s⁻¹; in [4], 5.14e-05 s⁻¹. The on-rate constant (kon) was found to be 314000 M⁻¹ s⁻¹ in [1] and 234000 M⁻¹ s⁻¹ in experiment [4]. Further, in experiment [3], the half-maximal effective concentration (EC50 (read off the curve)) was ~3 nM.

B2: S8F3VH+L27E5 (antibody, V domains shown)
VH: QVQLQQSGAELAKPGASVKISCKASGYTFTSYDVSWVKQRPGQGLEWIGWVYPVDGSTKFNEKFKGKATLTADRSSSTAYMQLTSLTSEDSAVYFCARLRYGNYGDAMDDWGQGTSVTVSA
VL: B1 VL
notes: built from the label (S8F3VH heavy chain variable region with the L27E5 light chain)
For the molecule B2, in experiment [4], the Kd was 3.32 nM, the koff worked out at 0.000146 s⁻¹ and the on-rate constant (kon) was found to be 43800 M⁻¹ s⁻¹.

B3: anti-CD3E monoclonal antibody H3B8+L27E5 (antibody, V domains shown)
VH: EVQLVESGGGLVQPGGSLRLSCAASGFTFSNAWMHWVRQAPGKGLEWVGQIKDKSNNYATYYADAVKGRFTISRDDSKNSLYLQMNSLKTEDTAVYYCRYVHYGVRFFYTMDVWGQGTTVTVSS
VL: B1 VL
notes: captured by an anti-human IgG (Fc) antibody in SPR; also called WM03-C6 humanized monoclonal antibody
Turning to B3, the Kd was 12.7 nM in experiment [5], 5.26 nM in experiment [6] and 47.6 nM in [7]. Also, the koff in experiment [5] was 0.000711 s⁻¹; in experiment [6], 0.000649 s⁻¹; in experiment [7], 0.000993 s⁻¹. Moreover, the results for the kon in experiment [5], in experiment [6] and in experiment [7] were 56100 M⁻¹ s⁻¹, 123000 M⁻¹ s⁻¹ and 20800 M⁻¹ s⁻¹, respectively.

B4: H7A3+L27E5 (antibody, V domains shown)
VH: B2 VH with R100T, N103D, Y104F, D110Y
VL: B1 VL
notes: Whole antibody: H7A3 variable region fused to a human heavy chain constant region, combined with the L27E5 light chain; also called S8F3 heavy chain mutant H7A3
In [1], B4 gave a Kd of 0.226 nM, a dissociation rate constant (koff) of 6.89e-05 s⁻¹ and a kon of 305000 M⁻¹ s⁻¹. In experiment [4], this molecule came in with a Kd of 0.246 nM, a koff of 6.64e-05 s⁻¹ and a kon of 270000 M⁻¹ s⁻¹.

B5: control bispecific antibody Xmab14045 (bispecific antibody)
heavy: QVQLQQSGAEVKKPGASVKVSCKASGYTFTDYYMKWVKQSHGKSLEWMGDIIPSNGATFYNQKFKGKATLTVDRSTSTAYMELSSLRSEDTAVYYCARSHLLRASWFAYWGQGTLVTVSSASTKGPSVFPLAPSSKSTSGGTAALGCLVKDYFPEPVTVSWNSGALTSGVHTFPAVLQSSGLYSLSSVVTVPSSSLGTQTYICNVNHKPSDTKVDKKVEPKSCDKTHTCPPCPAPPVAGPSVFLFPPKPKDTLMISRTPEVTCVVVDVKHEDPEVKFNWYVDGVEVHNAKTKPREEEYNSTYRVVSVLTVLHQDWLNGKEYKCKVSNKALPAPIEKTISKAKGQPREPQVYTLPPSREEMTKNQVSLTCDVSGFYPSDIAVEWESDGQPENNYKTTPPVLDSDGSFFLYSKLTVDKSRWEQGDVFSCSVMHEALHNHYTQKSLSLSPGK
scFv: not shown
light: not shown
As to B5, the results for the Kd in experiment [5] and in [6] were 0.65 nM and 0.935 nM, respectively.

B6: monoclonal antibody WM03-C6 (antibody, V domains shown)
VH: EVQLVETGENLVQPGKSLRLTCATSGFSFSNAWMHWIRQSPEKQLEWVAQIKDKSNNYATYYAESVNGRFTISRDDSKSSIYLHMDNLKEEDSAIYYCRYVHYGVRFFYTMDVWGQGTSVTVSS
VL: DVVMTQTPVSLSVSLGDQVSISCRPSQSLVHNNGNTYLSWYLQKPGQSPHPLIYKVSNRFSGISDRFSGSGSGTDFTLKISRVEPDDLGVYYCGQGTQYPFTFGSGTKLEIK
notes: also called rat monoclonal antibody WM03-C6; 20E5-F10 of WO 2016/116626 A1
With B6, in [7], the Kd is 10.6 nM, the dissociation rate constant (koff) stood at 0.000288 s⁻¹ and the kon was found to be 27200 M⁻¹ s⁻¹.

B7: S8F3VH+C6VK (antibody, V domains shown)
VH: B2 VH
VL: B6 VL
notes: Whole antibody: variable regions fused to a human heavy chain constant region and a light chain constant region; also called recombinant anti-CD123 monoclonal antibody
Take B7: in experiment [8], the Kd turned out to be 8.03 nM, the koff was determined as 0.00365 s⁻¹ and the kon came out at 455000 M⁻¹ s⁻¹.

B8: anti-human CD123 single chain fragment variable S8F3 (scFv)
scFv: QVQLQQSGAELAKPGASVKISCKASGYTFTSYDVSWVKQRPGQGLEWIGWVYPVDGSTKFNEKFKGKATLTADRSSSTAYMQLTSLTSEDSAVYFCARLRYGNYGDAMDDWGQGTSVTVSAGGGGSGGGGSGGGGSDVVMTQTPVSLSVSLGDQVSISCRPSQSLVHNNGNTYLSWYLQKPGQSPHPLIYKVSNRFSGISDRFSGSGSGTDFTLKISRVEPDDLGVYYCGQGTQYPFTFGSGTKLEIK
Take B8: in experiment [9], the binding result was “binds”.

The term koff denotes the rate constant with which the complex falls apart. By kon is commonly meant the second-order rate constant of association. The term EC50 (read off the curve) denotes the midpoint of the concentration-response curve.

The record behind these values is patent US20230071422A1 (BEIJING WISDOMAB BIOTECHNOLOGY, published 2023).
